From publication doi:10.1101/754457

Assays:
[1] = molecular target: Mto2-134AAA (full-length, recombinant) (S. pombe) (UniProt Q9USP7); experiment: SEC-MALS
[2] = molecular target: Mto2-134A136A (full-length, recombinant) (S. pombe) (UniProt Q9USP7); experiment: SEC-MALS

stoichiometry N [1]	stoichiometry N [2]	Substance
2		Mto2-134AAA (full-length, recombinant) (from UniProt Q9USP7 1-397) (natural protein)
	2	Mto2-134A136A (full-length, recombinant) (from UniProt Q9USP7 1-397) (natural protein)
